Laboratory results published in patent US20240117029A1 (Hoffmann-La Roche, published 2024).

Legend:
[1] = molecular target: T1, human CCL2 (MCP1) - wild type (wt) (human, UniProt P13500 24-99); experiment: SPR Biacore T200, 37 C, antibody captured, CCL2 as analyte, 1:1 model
T1 construct: Entry is without signal peptide; Made in-house or bought from R&D Systems (279-MC), depending on the assay; monomer-dimer equilibrium; also called wt human CCL2; hCCL2

[2] = molecular target: T2, human CCL2 (MCP1) - P8A variant (human, UniProt P13500 24-99); experiment: as above
T2 construct: Entry is without signal peptide; P8A prevents dimer formation (pure monomer); made in-house; also called monomeric human CCL2; monomeric CCL2

[3] = molecular target: T1, human CCL2 (MCP1) - wild type (wt); experiment: cell-based or functional assay

Binder	T½ [1] [min]	T½ [2] [min]	IC50, inhibition of THP-1 migration towards recombinant huCCL2 [3] [µg/mL]
murine 11K2 (antibody, V domains shown, also called 11K2m; X-0048) VH: EVQLQQSGAELVKAGASVKLSCPASGLNIKDTYMHWVKQRPEQGLEWIGRIDPANGNTKFDPKFQGKATITADTSSNTAYLQLSSLTSEDTAVYYCARGVFGFFDYWGQGTTLTVSS VL: DIQMTQSSSSFSVSLGDRVTITCKATEDIYNRLAWYQQKPGSAPRLLISGATSLETGVPSRFSGSGSGKDYTLSITSLQTEDVATYYCQQFWSAPYTFGGGTKLEIK	19	518	
2F6 (antibody, V domains shown, Generated as IgG1 wild type and IgG1 PGLALA with kappa light chain; also called CCL2-0014) VH: QSLEESGGGLVQPEGSLTLTCTASGFSFNNNYYMCWVRQAPGKGLEWIGCISTDDSNTHYASWAQGRFTISKASSTALTLQVAGLTVADMATYFCARDAHFTSYGYGFDLWGPGTLVTVSS VL: DIVMTQTPASVSAAVGGTVSINCRASEDIENLVAWYQQKPGQPPKLLIYQASKLASGVPSRFKGSGSGAEFTLTIGDLESADAATYYCQGDYGSGWIMYSFGGGTDLVVK	52	47	
1G9 (antibody, V domains shown, Generated as IgG1 wild type and IgG1 PGLALA with kappa light chain; also called CCL2-0010) VH: QSLEESGGDLVKPGASLTLTCKASGIDFSLYSYMCWVRQAPGKGLEWIACVDAGASGSTYYASWAKGRFTISKTSSTTVTLQMTSLTAADTATYFCARGILYYTWPYPAGAIDAFDSWGPGTLVTVSS VL: AYDMTQTPASVSEPVGGTVTIKCQASESISNYLSWYQQKPGQPPKLLIYKASTLASGVPSRFKGSGSGTEYTVTISGVQSDDAATYYCQQSYSSSNVFNTFGGGTEVVVK	177	218	
1A4 (antibody, V domains shown, also called CCL2-0008) VH: QSLEESGGDLVKPGASLTLTCTASELDFYWICWVRQAPGKGLEWIACIGAGSSGSTYYASWAKGRFTVSKTSSTTVTLQMTSLTAADTATYFCARTGTEFTYYSLWGPGTLVTVSS VL: ALVMTQTPSSVSAAVGGTVTINCQASQSVYNNNMAWYQQKPGQPPKLLIYTASSLASGVPSHFRGSGSGTQFTLTISDLESDDAATYYCAGYKSYSNDEYGFGGGTEVVVK	100	174	
CKLO02 IgG1 (bispecific antibody) heavy 1: not shown heavy 2: not shown light 1: QVQLVQSGAEVKKPGSSVKVSCKASGLTISHTYMHWVRQAPGQGLEWMGRIDPDNHNTKFDPKFQGRVTITADTSTSTAYMELSSLRSEDTAVYYCARGVFGFFEHWGQGTTVTVSSASVAAPSVFIFPPSDEQLKSGTASVVCLLNNFYPREAKVQWKVDNALQSGNSQESVTEQDSKDSTYSLSSTLTLSKADYEKHKVYACEVTHQGLSSPVTKSFNRGEC light 2: EIVLTQSPATLSLSPGERATLSCRASQHVSDAYLAWYQQKPGQAPRLLIYDASDRAEGVPARFSGSGSGTDFTLTISSLEPEDFAVYYCHQYIHLHSFTFGQGTKVEIKRTVAAPSVFIFPPSDRKLKSGTASVVCLLNNFYPREAKVQWKVDNALQSGNSQESVTEQDSKDSTYSLSSTLTLSKADYEKHKVYACEVTHQGLSSPVTKSFNRGEC			0.2
CKLO2-GG01 (bispecific antibody) heavy 1: DIQMTQSPSSLSASVGDRVTITCKAFEDIYNRRAWYQQKPGKAPKLLIHGATSLEHGVPSRFSGSGSGTDYTLTISSLQPEDFATYYCQQFWSAPYTFGGGTKVEIKSSASTKGPSVFPLAPSSKSTSGGTAALGCLVKDYFPEPVTVSWNSGALTSGVHTFPAVLQSSGLYSLSSVVTVPSSSLGTQTYICNVNHKPSNTKVDKKVEPKSCDKTHTCPPCPAPEYLGGDSVFLFPPKPKDVLMISRTPEVTCVVIDVSHEDPEVKFNWYVDGVEVHNAKTKPREEQYNSTYRVVSVLPVLHRDWLNGKEYKCKVSNKALPKPIEKTISKAKGQRREPQVYTLPPCRDELTKNQVSLWCLVKGFYPSDIAVEWESNGQPENNYKTTPPVLDSDGSFFLYSKLTVDKSRWQQGNVFSCSVMHEALHAHYTRKELSLSP heavy 2: not shown light 1: QVQLVQSGAEVKKPGSSVKVSCKASGLTISHTYMHWVRQAPGQGLEWMGRIDPDNHNTKFDPKFQGRVTITADTSTSTAYMELSSLRSEDTAVYYCARGVFGFFEHWGQGTTVTVSSASVAAPSVFIFPPSDEQLKSGTASVVCLLNNFYPREAKVQWKVDNALQSGNSQESVTEQDSKDSTYSLSSTLTLSKADYEKHKVYACEVTHQGLSSPVTKSFNRGEC light 2: EIVLTQSPATLSLSPGERATLSCRASQHVSDAYLAWYQQKPGQAPRLLIYDASDRAEGVPARFSGSGSGTDFTLTISSLEPEDFAVYYCHQYIHLHSFTFGQGTKVEIKRTVAAPSVFIFPPSDRKLKSGTASVVCLLNNFYPREAKVQWKVDNALQSGNSQESVTEQDSKDSTYSLSSTLTLSKADYEKHKVYACEVTHQGLSSPVTKSFNRGEC			0.2
CKLO2-SG1095 (bispecific antibody) heavy 1: DIQMTQSPSSLSASVGDRVTITCKAFEDIYNRRAWYQQKPGKAPKLLIHGATSLEHGVPSRFSGSGSGTDYTLTISSLQPEDFATYYCQQFWSAPYTFGGGTKVEIKSSASTKGPSVFPLAPSSKSTSGGTAALGCLVKDYFPEPVTVSWNSGALTSGVHTFPAVLQSSGLYSLSSVVTVPSSSLGTQTYICNVNHKPSNTKVDKKVEPKSCDKTHTCPPCPAPELWNGPSVFLFPPKPKDTLMISRTPEVTCVVVDVSDEDPEVKFNWYVDGVEVHNAKTKPREELYNSTYRVVSVLTVLHRDWLNGKEYKCKVSNTALPKPIEKTISKAKGQRREPQVYTLPPCRDELTKNQVSLWCLVKGFYPSDIAVEWESNGQPENNYKTTPPVLDSDGSFFLYSKLTVDKSRWQQGNVFSCSVMHEALHAHYTRKELSLSP heavy 2: not shown light 1: QVQLVQSGAEVKKPGSSVKVSCKASGLTISHTYMHWVRQAPGQGLEWMGRIDPDNHNTKFDPKFQGRVTITADTSTSTAYMELSSLRSEDTAVYYCARGVFGFFEHWGQGTTVTVSSASVAAPSVFIFPPSDEQLKSGTASVVCLLNNFYPREAKVQWKVDNALQSGNSQESVTEQDSKDSTYSLSSTLTLSKADYEKHKVYACEVTHQGLSSPVTKSFNRGEC light 2: EIVLTQSPATLSLSPGERATLSCRASQHVSDAYLAWYQQKPGQAPRLLIYDASDRAEGVPARFSGSGSGTDFTLTISSLEPEDFAVYYCHQYIHLHSFTFGQGTKVEIKRTVAAPSVFIFPPSDRKLKSGTASVVCLLNNFYPREAKVQWKVDNALQSGNSQESVTEQDSKDSTYSLSSTLTLSKADYEKHKVYACEVTHQGLSSPVTKSFNRGEC			0.2
CKLO2-GG03/GG04 (bispecific antibody) heavy 1: DIQMTQSPSSLSASVGDRVTITCKAFEDIYNRRAWYQQKPGKAPKLLIHGATSLEHGVPSRFSGSGSGTDYTLTISSLQPEDFATYYCQQFWSAPYTFGGGTKVEIKSSASTKGPSVFPLAPSSKSTSGGTAALGCLVKDYFPEPVTVSWNSGALTSGVHTFPAVLQSSGLYSLSSVVTVPSSSLGTQTYICNVNHKPSNTKVDKKVEPKSCDKTHTCPPCPAPEYLGGDSVFLFPPKPKDVLMISRTPEVTCVVIDVSHEDPEVKFNWYVDGVEVHNAKTKPREEQYNSTYRVVSVLPVLHRDWLNGKEYKCKVSNKALPKPIEKTISKAKGQRREPQVYTLPPCREEMTKNQVSLWCLVKGFYPSDIAVEWESNGQPENNYKTTPPVLDSDGSFFLYSKLTVDKSRWQQGNVFSCSVMHEALHAHYTRKELSLSP heavy 2: not shown light 1: QVQLVQSGAEVKKPGSSVKVSCKASGLTISHTYMHWVRQAPGQGLEWMGRIDPDNHNTKFDPKFQGRVTITADTSTSTAYMELSSLRSEDTAVYYCARGVFGFFEHWGQGTTVTVSSASVAAPSVFIFPPSDEQLKSGTASVVCLLNNFYPREAKVQWKVDNALQSGNSQESVTEQDSKDSTYSLSSTLTLSKADYEKHKVYACEVTHQGLSSPVTKSFNRGEC light 2: EIVLTQSPATLSLSPGERATLSCRASQHVSDAYLAWYQQKPGQAPRLLIYDASDRAEGVPARFSGSGSGTDFTLTISSLEPEDFAVYYCHQYIHLHSFTFGQGTKVEIKRTVAAPSVFIFPPSDRKLKSGTASVVCLLNNFYPREAKVQWKVDNALQSGNSQESVTEQDSKDSTYSLSSTLTLSKADYEKHKVYACEVTHQGLSSPVTKSFNRGEC			0.3
CKLO2-GG02 (bispecific antibody) heavy 1: DIQMTQSPSSLSASVGDRVTITCKAFEDIYNRRAWYQQKPGKAPKLLIHGATSLEHGVPSRFSGSGSGTDYTLTISSLQPEDFATYYCQQFWSAPYTFGGGTKVEIKSSASTKGPSVFPLAPSSKSTSGGTAALGCLVKDYFPEPVTVSWNSGALTSGVHTFPAVLQSSGLYSLSSVVTVPSSSLGTQTYICNVNHKPSNTKVDKKVEPKSCDKTHTCPPCPAPEYLGGDSVFLFPPKPKDVLMISRTPEVTCVVIDVSHEDPEVKFNWYVDGVEVHNAKTKPREEQYNSTYRVVSVLPVLHRDWLNGKEYKCKVSNKALPKPIEKTISKAKGQRREPQVYTLPPCRDELTKNQVSLWCLVKGFYPSDIAVEWESNGQPENNYKTTPPVLDSDGSFFLYSKLTVDKSRWQQGNVFSCSVLHEALHAHTTRKELSLSP heavy 2: not shown light 1: QVQLVQSGAEVKKPGSSVKVSCKASGLTISHTYMHWVRQAPGQGLEWMGRIDPDNHNTKFDPKFQGRVTITADTSTSTAYMELSSLRSEDTAVYYCARGVFGFFEHWGQGTTVTVSSASVAAPSVFIFPPSDEQLKSGTASVVCLLNNFYPREAKVQWKVDNALQSGNSQESVTEQDSKDSTYSLSSTLTLSKADYEKHKVYACEVTHQGLSSPVTKSFNRGEC light 2: EIVLTQSPATLSLSPGERATLSCRASQHVSDAYLAWYQQKPGQAPRLLIYDASDRAEGVPARFSGSGSGTDFTLTISSLEPEDFAVYYCHQYIHLHSFTFGQGTKVEIKRTVAAPSVFIFPPSDRKLKSGTASVVCLLNNFYPREAKVQWKVDNALQSGNSQESVTEQDSKDSTYSLSSTLTLSKADYEKHKVYACEVTHQGLSSPVTKSFNRGEC			0.2
1A5 (antibody, V domains shown, Generated as IgG1 wild type and IgG1 PGLALA with kappa light chain; also called CCL2-0009) VH: QEQLVESGGDLVKPEGSLTLTCTASGFSFSTSYWMCWVRQAPGKGLELIACISSSIGVTYYASWAEGRFTISKTSSTTVTLQMTSLTVADTATYFCARTTDDNWNVGFNLWGPGTLVTVSS VL: AYDMTQTPASVEVGVGGTVTIKCQASQSIGNRYLSWYQQKPGQPPKLLIYGTSTLASGVSSRFKGSGSGTQFTLTISGVESADSATYYCQQGATISYLDNAFGGGTEVVVK	160	137	
